The values that follow come from patent US20140087995A1 (published 2014).

As a reminder, the IC50 is the concentration that gives 50% inhibition.

B1: N^α1-[2-[2-[2-[[2-[2-[2-[[(4S)-4-carboxy-4-(19-carboxynonadecanoylamino)butanoyl]amino]ethoxy]ethoxy]acetyl]amino]ethoxy]ethoxy]acetyl]-[Glu14,Arg17,Pro21,Pro27 … (peptide)
peptide: KCNTATCATQRLAEFLRHSSPNFGAIPSSTNVGSNTY
modifications: C20 diacid-gGlu-2xOEG on alpha amino group of N-terminal Lys 1; Cys2-Cys7 disulfide; C-terminal amide
notes: also called 19; compound 19
B2: N^α1-[(4S)-4-carboxy-4-(19-carboxynonadecanoylamino)butanoyl]-[Arg17,Pro21,Pro27,Glu35]-h-amylin (peptide)
peptide: KCNTATCATQRLANFLRHSSPNFGAIPSSTNVGSETY
modifications: C20 diacid-gGlu on alpha amino group of N-terminal Lys 1; Cys2-Cys7 disulfide; C-terminal amide
notes: also called 23; compound 23
B3: N^α1-[(4S)-4-carboxy-4-(19-carboxynonadecanoylamino)butanoyl]-[Arg17,Pro21,Pro27,His34]-h-amylin (peptide)
peptide: KCNTATCATQRLANFLRHSSPNFGAIPSSTNVGHNTY
modifications: C20 diacid-gGlu on alpha amino group of N-terminal Lys 1; Cys2-Cys7 disulfide; C-terminal amide
notes: also called 40; compound 40
B4: N^α1-[(4S)-4-carboxy-4-(19-carboxynonadecanoylamino)butanoyl]-[Arg17,Pro21,Pro27,Pro31,Glu35]-h-amylin (peptide)
peptide: {C20 diacid-γGlu}-KCNTATCATQRLANFLRHSSPNFGAIPSSTPVGSETY-NH2
modifications: disulfide 2-7
SMILES: CC[C@H](C)[C@H](NC(=O)[C@H](C)NC(=O)CNC(=O)[C@H](Cc1ccccc1)NC(=O)[C@H](CC(N)=O)NC(=O)[C@@H]1CCCN1C(=O)[C@H](CO)NC(=O)[C@H](CO)NC(=O)[C@H](Cc1c[nH]cn1)NC(=O)[C@H](CCCNC(=N)N)NC(=O)[C@H](CC(C)C)NC(=O)[C@H](Cc1ccccc1)NC(=O)[C@H](CC(N)=O)NC(=O)[C@H](C)NC(=O)[C@H](CC(C)C)NC(=O)[C@H](CCCNC(=N)N)NC(=O)[C@H](CCC(N)=O)NC(=O)[C@@H](NC(=O)[C@H](C)NC(=O)[C@@H]1CSSC[C@H](NC(=O)[C@H](CCCCN)NC(=O)CC[C@H](NC(=O)CCCCCCCCCCCCCCCCCCC(=O)O)C(=O)O)C(=O)N[C@@H](CC(N)=O)C(=O)N[C@@H]([C@@H](C)O)C(=O)N[C@@H](C)C(=O)N[C@@H]([C@@H](C)O)C(=O)N1)[C@@H](C)O)C(=O)N1CCC[C@H]1C(=O)N[C@@H](CO)C(=O)N[C@@H](CO)C(=O)N[C@H](C(=O)N1CCC[C@H]1C(=O)N[C@H](C(=O)NCC(=O)N[C@@H](CO)C(=O)N[C@@H](CCC(=O)O)C(=O)N[C@H](C(=O)N[C@@H](Cc1ccc(O)cc1)C(N)=O)[C@@H](C)O)C(C)C)[C@@H](C)O
notes: also called 28; compound 28

Numbered stars: 1 amine (or outer) side, 2 acyl side, 3 side chain; on linkers, the order of the positions; unused ones are H or OH. Bridge positions count the residues as written; N and C are the ends. * marks the point of attachment. C20 diacid = O=C(O)CCCCCCCCCCCCCCCCCCC(=O)*; γGlu = O=C(O)[C@H](CCC(=O)[*:2])N[*:1]

For this assay, the target named is T1, human amylin receptor (amylin 3(a) receptor: human calcitonin receptor with RAMP-3) (human, UniProt P30988 25-474; O60896 24-148).
T1 construct: whole, on cells; also called hAmylin-R; hAmylinR
T1 sequence (looked up) 1: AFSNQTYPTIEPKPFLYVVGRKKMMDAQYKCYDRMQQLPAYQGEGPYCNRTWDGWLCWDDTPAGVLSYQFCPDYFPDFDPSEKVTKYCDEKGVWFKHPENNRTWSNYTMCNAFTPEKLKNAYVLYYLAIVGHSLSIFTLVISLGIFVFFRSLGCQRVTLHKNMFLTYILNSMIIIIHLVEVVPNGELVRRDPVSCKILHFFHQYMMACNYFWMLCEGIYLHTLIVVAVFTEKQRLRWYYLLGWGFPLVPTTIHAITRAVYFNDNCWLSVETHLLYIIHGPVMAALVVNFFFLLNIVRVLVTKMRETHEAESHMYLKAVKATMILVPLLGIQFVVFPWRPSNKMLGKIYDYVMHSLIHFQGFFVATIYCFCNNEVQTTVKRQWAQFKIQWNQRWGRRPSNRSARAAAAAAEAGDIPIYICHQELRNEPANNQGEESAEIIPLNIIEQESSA
T1 sequence (looked up) 2: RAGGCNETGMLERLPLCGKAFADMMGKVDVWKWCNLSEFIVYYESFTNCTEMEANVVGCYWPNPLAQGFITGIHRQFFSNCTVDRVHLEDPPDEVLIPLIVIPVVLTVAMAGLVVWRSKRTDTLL
As to the kind of experiment: SPA displacement of 125I-rat amylin, hAmylin 3(a) receptor membranes. The protocol: The binding assay was performed using scintillation proximity assay (SPA) beads (RPNQ0001) from PerkinElmer and cell membranes from the Amylin 3(a)/CRE-luc cells (as described in Assay (II)) were used. Membranes were prepared in the following way; the cells were rinsed with PBS and incubated with Versene for approximately 5 min before harvesting. The cells were flushed with PBS and the cell-suspension was centrifuged for 5 min at 1000 rpm. Cells were homogenized (ultrathurrax) in a buffer containing 20 mM Na-HEPES and 10 mM EDTA (pH 7.4) and centrifuged at 20.000 rpm for 15 min. The resulting pellet was resuspended, homogenized and centrifuged (20.000 rpm, 15 min) in a buffer containing 20 mM Na-HEPES and 0.1 mM EDTA (pH 7.4, buffer 2). The resulting pellet was resuspended in buffer 2 and protein concentration was measured (BCA protein Assay, Pierce). The homogenate was kept cold during the whole procedure. The membranes were kept at −80° C. until use. The assay was performed in a 384 well Optiplate (PerkinElmer) in a total volume of 40 ul. Membranes were mixed with SPA beads. Final concentration of membranes 35 ng/μL final and SPA beads was 0.05 mg/well. Test-compounds were dissolved in DMSO and further diluted in assay buffer (50 mM Hepes, pH 7.4, 1 mM CaCl2, 5 mM MgCl₂, 0.1% OA and 0.02% Tween20). […] The final mixture was incubated with shaking at 400 rpm for 120 min at 25° C. prior to centrifugation (1500 rpm, 10 min). Samples were analyzed on TopCounter™ (Packard). The IC₅₀ was calculated using (one site binding competition analysis) GraphPad Prism5 as a measure of receptor affinity.
On the technique in general: In a radioligand displacement assay an active substance lowers the binding of a labelled ligand.
B1: the IC50 was determined as 0.556 nM. Then B2, with 0.871 nM.

Turning to B3, the IC50 worked out at 0.549 nM. Under B4 stands 0.61 nM.
